From patent publication US20100068208A1, “Degranulation inhibitor” (priority 2005, published 2010) come the findings set out here.

Where no end group is shown, it is not given here.

The IC50 is the concentration needed to halve the response being measured. A higher IC50 goes with weaker potency in that assay.

The target of experiment [1] is T1, human TGR12 (Homo sapiens, UniProt Q96LB1).
T1 construct: expressed in transfected cells
T1 sequence (Q96LB1 1-330): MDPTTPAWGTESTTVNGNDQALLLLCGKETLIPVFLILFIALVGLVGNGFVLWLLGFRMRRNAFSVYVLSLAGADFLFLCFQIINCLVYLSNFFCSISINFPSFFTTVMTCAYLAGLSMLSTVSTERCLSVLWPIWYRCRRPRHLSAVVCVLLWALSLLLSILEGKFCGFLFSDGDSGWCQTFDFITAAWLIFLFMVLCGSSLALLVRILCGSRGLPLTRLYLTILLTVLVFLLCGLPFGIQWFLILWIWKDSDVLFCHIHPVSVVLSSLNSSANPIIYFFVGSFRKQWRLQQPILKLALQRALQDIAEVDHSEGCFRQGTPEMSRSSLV
Nature of the experiment: MAPK (ERK1/2) activation in human TGR12-expressed CHO cells (western blotting). Format: cell-based. Particulars: CHO-TGR12, PTX 0.1 μg/mL 4 hours before the assay.
Protocol: CHO/dhfr^− cells (hereinafter CHO) were incubated in α-MEM (Invitrogen) containing 10% fetal calf serum. […] CHO-TGR12 was incubated in nucleic acid-free α-MEM (Invitrogen) containing 10% dialyzed fetal calf serum.
The cells were prepared as follows. […] After centrifugation, the deposited cells were suspended in the medium at 2×10^5 cells/ml and 1 mL each was plated in a 12-well cell culture dish. After incubation overnight in a CO2 incubator, the medium was aspirated and washed with PBS. […] Pertussis toxin (hereinafter PTX) was added at a final concentration of 0.1 μg/mL 4 hours before the assay.
Activation of the cells was performed as follows. The medium was aspirated and washed with PBS.
Detection by SDS-PAGE and western blotting was performed as follows. After resolving on a 10% Bis-Tris gel (Invitrogen), the proteins were transferred onto Immune-Blot PVDF membrane (BIO-RAD). The membrane was blocked in Block Ace (Dainippon Pharmaceutical), incubated at room temperature for an hour using a primary antibody (phospho-p42/p44 MAP kinase (Thr202/Thr204) antibody (CST) or p42/p44 MAP kinase antibody (CST)) and then incubated at room temperature for an hour using a secondary antibody (anti-rabbit IgG (CST)). The membrane after the antibody reaction was visualized by chemiluminescence with ECL PLUS (Amersham Biosciences), followed by detection and image analysis using LAS1000 (FUJI FILM).

Experiment [2] deals with T2, TGR12-GFP (fused protein of human TGR12 and GFP, encoded by the DNA of SEQ ID NO: 45), stably expressed on … (human, UniProt Q96LB1 1-330).
T2 construct: also called TGR12-GFP expression CHO cell line; not shown: GFP (Wako Pure Chemical) fused after the C-terminus of TGR12
T2 sequence: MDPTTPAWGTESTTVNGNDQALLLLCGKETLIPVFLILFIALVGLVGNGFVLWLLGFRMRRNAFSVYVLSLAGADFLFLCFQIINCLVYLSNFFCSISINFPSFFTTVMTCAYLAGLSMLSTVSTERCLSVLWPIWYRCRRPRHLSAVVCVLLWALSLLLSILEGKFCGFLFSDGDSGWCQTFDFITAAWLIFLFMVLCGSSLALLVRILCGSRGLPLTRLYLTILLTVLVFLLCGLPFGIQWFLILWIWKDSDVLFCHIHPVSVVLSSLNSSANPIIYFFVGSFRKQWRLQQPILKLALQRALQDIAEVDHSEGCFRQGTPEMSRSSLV
In words: competition with 200 pM [125I]-rCST14 (Y0) on CHO-TGR12GFP cells, Hill plot. Here is the method: The binding assay using CHO-TGR12GFP was performed as follows. […] After incubation overnight, the cells were washed 3 times with ice-chilled assay buffer (MEM-α, 20 mM HEPES (pH 7.4), 0.05% BSA) and 250 μL of the assay buffer was added thereto. […] After washing 3 times with 500 μL of the assay buffer, the cells were lysed in 250 μL of 0.5N NaOH and the lysate was recovered for measurement of the radioactivity.
Based on the above, non-specific binding was estimated as the activity of 10 μM rat cortistatin-14 and the IC₅₀ value of each peptide was obtained from Hill plot analysis.

Experiment [3] deals with T3, human TGR12 (untagged) (human, UniProt Q96LB1 1-330).
T3 sequence: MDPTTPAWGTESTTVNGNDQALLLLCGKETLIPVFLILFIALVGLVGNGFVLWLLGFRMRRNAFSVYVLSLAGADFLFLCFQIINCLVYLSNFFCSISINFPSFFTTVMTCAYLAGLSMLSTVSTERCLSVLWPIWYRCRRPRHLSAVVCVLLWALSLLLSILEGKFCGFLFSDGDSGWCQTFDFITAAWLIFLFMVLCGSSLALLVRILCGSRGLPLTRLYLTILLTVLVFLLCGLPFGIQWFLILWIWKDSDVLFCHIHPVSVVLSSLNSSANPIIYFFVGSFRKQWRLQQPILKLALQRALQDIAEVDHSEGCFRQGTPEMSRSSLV
In words: cell-based or functional assay.

Experiment [4] concerns the target T4, TGR12-GFP (fused protein of human TGR12 and GFP, encoded by the DNA of SEQ ID NO: 31), stably expressed on … (human, UniProt Q96LB1 1-330).
T4 sequence: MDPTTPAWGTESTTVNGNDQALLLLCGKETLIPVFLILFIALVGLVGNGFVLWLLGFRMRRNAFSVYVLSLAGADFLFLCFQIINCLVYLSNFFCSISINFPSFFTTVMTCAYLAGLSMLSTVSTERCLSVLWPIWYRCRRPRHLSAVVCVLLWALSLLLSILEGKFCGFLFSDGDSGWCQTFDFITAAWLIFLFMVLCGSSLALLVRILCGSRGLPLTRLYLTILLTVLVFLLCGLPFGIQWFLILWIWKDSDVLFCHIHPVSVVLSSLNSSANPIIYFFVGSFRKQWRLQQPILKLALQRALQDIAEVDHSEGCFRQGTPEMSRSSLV
In words: cell-based or functional assay.

Take Pertussis toxin [PTX]: in experiment [1], the “attenuation by pretreatment of phosphorylation of ERK1/2 with ATP” value is “not observed” and the “effect of pretreatment on phosphorylation of ERK1/2 by substance P” value was “attenuated”.

B1: human VIP (vasoactive intestinal polypeptide) (peptide, UniProt P01282 125-152, looked up)
peptide: HSDAVFTDNYTRLRKQMAVKKYLNSILN
modifications: not fully specified; ends and bridges not checked
notes: domain: VIP; also called vasoactive intestinal peptide
In turn, B1 came in with an IC50 in experiment [2] of 2.04 µM. For the same molecule, in experiment [3], the “EC50 in the degranulation on LAD 2” value was roughly 0.105 µM; the “degranulation of LAD 2 (beta-hexosaminidase release, % of total) at 10 nM” value was 1.5%; the “degranulation of LAD 2 (beta-hexosaminidase release, % of total) at 30 nM” value came out at 4%; the “degranulation of LAD 2 (beta-hexosaminidase release, % of total) at 100 nM” value came out at 36.7%. Besides, in experiment [3], the “degranulation of LAD 2 (beta-hexosaminidase release, % of total) at 300 nM” value worked out at 63.9% and the “degranulation of LAD 2 (beta-hexosaminidase release, % of total) at 3 µM” value is 76.1%. Moreover, in experiment [4], the “EC50 in the calcium increasing effect on CHO-TGR12” value was roughly 0.305 µM; the “maximum activity in the calcium increasing effect (FLIPR), CHO-TGR12, at 0.3 nM” value was determined as 56 fluorescence intensity; the “maximum activity in the calcium increasing effect (FLIPR), CHO-TGR12, at 3 nM” value came out at 60 fluorescence intensity; the “maximum activity in the calcium increasing effect (FLIPR), CHO-TGR12, at 30 nM” value is 16 fluorescence intensity. In experiment [4], the “maximum activity in the calcium increasing effect (FLIPR), CHO-TGR12, at 300 nM” value was 11200 fluorescence intensity and the “maximum activity in the calcium increasing effect (FLIPR), CHO-TGR12, at 3000 nM” value turned out to be 24000 fluorescence intensity.
In experiment [2], HSDGIFTDSYSRYRKQMAVKKYLAAVLGKRYKQRVKNK (peptide, UniProt P18509 132-169, looked up, not fully specified; ends and bridges not checked, domain: PACAP-38) [human PACAP38 (pituitary adenylate cyclase activating polypeptide 38)] came in with an IC50 of 0.047 µM. In experiment [3], the “EC50 in the degranulation on LAD 2” value is roughly 0.051 µM; the “degranulation of LAD 2 (beta-hexosaminidase release, % of total) at 10 nM” value was 7.4%; the “degranulation of LAD 2 (beta-hexosaminidase release, % of total) at 30 nM” value stood at 24.8%; the “degranulation of LAD 2 (beta-hexosaminidase release, % of total) at 100 nM” value was 49.4%. Also, in experiment [3], the “degranulation of LAD 2 (beta-hexosaminidase release, % of total) at 300 nM” value came out at 65.8%; the “degranulation of LAD 2 (beta-hexosaminidase release, % of total) at 1 µM” value was determined as 68.9%; the “degranulation of LAD 2 (beta-hexosaminidase release, % of total) at 3 µM” value turned out to be 63.3%. Moreover, in experiment [4], the “EC50 in the calcium increasing effect on CHO-TGR12” value is roughly 0.161 µM; the “maximum activity in the calcium increasing effect (FLIPR), CHO-TGR12, at 0.3 nM” value was 287 fluorescence intensity; the “maximum activity in the calcium increasing effect (FLIPR), CHO-TGR12, at 3 nM” value came to 410 fluorescence intensity; the “maximum activity in the calcium increasing effect (FLIPR), CHO-TGR12, at 30 nM” value is 195 fluorescence intensity. For the same molecule, in experiment [4], the “maximum activity in the calcium increasing effect (FLIPR), CHO-TGR12, at 300 nM” value amounted to 23000 fluorescence intensity and the “maximum activity in the calcium increasing effect (FLIPR), CHO-TGR12, at 3000 nM” value stood at 23300 fluorescence intensity.
